# B1: SYN001 (other)
# chain: MQHHGVTKCNITCSKMTSKIPVALLIHYQQNQASCGKRAIILETRQHRLACADPKEQWVKDAMQHLDRQAAALTRNRQPRGWEQLEQSGYPVQRLVALYLAARLSWNQVDQVIRNALASPGSGGDLGEAIREQPEQARLALTLAAAESERFVRQGTGNDEAGAASGPADSGDALLERNYPTGAEFLGDGGDISFSTRGTQNWTVERLLQAHRQLEERGYVFVGYHGTFLEAAQSIVFGGVRARSQDLDAIWRGFYIAGDPALAYGYAQDQEPDARGRIRNGALLRVYVPRSSLPGFYRTGLTLAAPEAAGEVERLIGHPLPLRLDAITGPEEEGGRLETILGWPLAERTVVIPSAIPTDPRNVGGDLDPSSIPDKEQAISALPDYASQPGKPPKDE
# Key:
# US28 = target: T1, US28 (human cytomegalovirus, UniProt P69332 1-354); experiment: cell-based or functional assay
# T1 sequence: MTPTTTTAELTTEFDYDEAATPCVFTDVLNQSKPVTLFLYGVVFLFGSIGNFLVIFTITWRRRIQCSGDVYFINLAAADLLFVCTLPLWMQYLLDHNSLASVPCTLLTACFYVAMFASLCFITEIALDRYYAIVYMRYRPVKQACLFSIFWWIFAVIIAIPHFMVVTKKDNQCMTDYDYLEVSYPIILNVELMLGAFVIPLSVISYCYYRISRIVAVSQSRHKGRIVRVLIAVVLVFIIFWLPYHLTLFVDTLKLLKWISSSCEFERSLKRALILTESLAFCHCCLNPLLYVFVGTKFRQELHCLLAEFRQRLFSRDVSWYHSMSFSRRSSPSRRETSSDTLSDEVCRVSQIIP
# CX3CR1 = target: T2, CX3CR1 (human, UniProt P49238 1-355); experiment: cell-based or functional assay
# T2 sequence: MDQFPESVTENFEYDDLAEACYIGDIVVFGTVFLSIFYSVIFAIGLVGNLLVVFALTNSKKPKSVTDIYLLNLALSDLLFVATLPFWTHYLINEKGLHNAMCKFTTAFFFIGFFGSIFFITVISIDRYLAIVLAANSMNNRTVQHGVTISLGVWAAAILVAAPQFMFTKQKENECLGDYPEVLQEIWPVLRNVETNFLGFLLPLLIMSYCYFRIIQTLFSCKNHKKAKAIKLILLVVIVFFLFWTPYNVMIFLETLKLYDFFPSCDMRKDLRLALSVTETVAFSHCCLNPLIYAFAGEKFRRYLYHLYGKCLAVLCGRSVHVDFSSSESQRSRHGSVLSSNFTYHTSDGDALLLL
binder,measurement,setting,value
B1,Log IC50 (cell killing),US28,-10.7
same,Log IC50 (cell killing),CX3CR1,-7.82

# Source: patent publication US20220288160A1 (SYNKLINO A S, published 2022)
